Experiments:
[1] = biological target: human CD3 (purchased from Acro, Cat. No. CDD-H52W1) (human, UniProt P07766 23-126); assay: SPR (Biacore 8K), CD3 immobilised directly on CM5, bispecific as analyte, 1:1 Langmuir fit
[2] = biological target: T1, cynomolgus CD3 (purchased from Acro, Cat. No. CDD-C52W4) (cynomolgus, UniProt Q95LI5 22-117); assay: as above
T1 sequence (looked up): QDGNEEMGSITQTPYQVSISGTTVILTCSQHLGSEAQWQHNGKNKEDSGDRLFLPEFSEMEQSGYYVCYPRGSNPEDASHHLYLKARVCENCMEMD

[3] = biological target: T2, human DLL3 (hDLL3) expressed on tumor cells (human, UniProt Q9NYJ7 27-618); assay: cell-based or functional assay
T2 sequence (looked up): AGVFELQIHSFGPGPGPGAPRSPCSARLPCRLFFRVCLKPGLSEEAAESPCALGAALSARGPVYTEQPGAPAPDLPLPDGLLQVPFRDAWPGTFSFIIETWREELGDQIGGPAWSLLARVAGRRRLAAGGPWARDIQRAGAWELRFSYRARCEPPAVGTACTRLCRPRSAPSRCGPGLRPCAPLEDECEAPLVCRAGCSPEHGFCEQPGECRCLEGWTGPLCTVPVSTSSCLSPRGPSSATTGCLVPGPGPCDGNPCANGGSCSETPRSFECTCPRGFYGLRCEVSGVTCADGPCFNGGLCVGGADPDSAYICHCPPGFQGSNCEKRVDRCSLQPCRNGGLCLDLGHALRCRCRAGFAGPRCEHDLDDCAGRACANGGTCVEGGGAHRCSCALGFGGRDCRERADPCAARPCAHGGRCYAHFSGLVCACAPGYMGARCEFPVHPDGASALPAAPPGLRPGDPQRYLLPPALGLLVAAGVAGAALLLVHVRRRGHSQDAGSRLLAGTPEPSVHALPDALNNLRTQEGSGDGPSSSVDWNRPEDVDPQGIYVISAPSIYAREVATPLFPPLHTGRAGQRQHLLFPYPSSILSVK

[4] = biological target: T3, cynomolgus DLL3 (purchased from Kaixia, Cat. No. DLL-RM103) (cynomolgus, UniProt A0A2K5WSR1 27-490); assay: SPR (Biacore 8K), bispecific captured by anti-human Fc on CM5, DLL3 as analyte, 1:1 Langmuir fit
T3 construct: Bought recombinant protein
T3 sequence: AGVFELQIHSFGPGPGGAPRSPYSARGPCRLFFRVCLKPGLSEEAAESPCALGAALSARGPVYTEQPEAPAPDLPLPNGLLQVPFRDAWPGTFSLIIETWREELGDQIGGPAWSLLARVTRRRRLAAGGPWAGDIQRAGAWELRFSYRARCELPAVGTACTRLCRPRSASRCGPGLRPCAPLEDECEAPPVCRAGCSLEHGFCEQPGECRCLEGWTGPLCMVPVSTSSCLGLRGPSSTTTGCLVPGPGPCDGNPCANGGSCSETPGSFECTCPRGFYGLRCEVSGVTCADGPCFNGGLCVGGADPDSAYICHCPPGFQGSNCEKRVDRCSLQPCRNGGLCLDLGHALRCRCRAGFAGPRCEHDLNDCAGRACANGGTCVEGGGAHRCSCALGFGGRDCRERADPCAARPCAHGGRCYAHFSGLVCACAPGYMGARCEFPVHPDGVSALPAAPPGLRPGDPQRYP

[5] = biological target: T4, human DLL3 (purchased from Kaixia, Cat. No DLL-HM103) (human, UniProt Q9NYJ7 27-492, limits assumed); assay: as above
T4 construct: Bought recombinant protein; also called human DLL3 protein
T4 sequence (looked up): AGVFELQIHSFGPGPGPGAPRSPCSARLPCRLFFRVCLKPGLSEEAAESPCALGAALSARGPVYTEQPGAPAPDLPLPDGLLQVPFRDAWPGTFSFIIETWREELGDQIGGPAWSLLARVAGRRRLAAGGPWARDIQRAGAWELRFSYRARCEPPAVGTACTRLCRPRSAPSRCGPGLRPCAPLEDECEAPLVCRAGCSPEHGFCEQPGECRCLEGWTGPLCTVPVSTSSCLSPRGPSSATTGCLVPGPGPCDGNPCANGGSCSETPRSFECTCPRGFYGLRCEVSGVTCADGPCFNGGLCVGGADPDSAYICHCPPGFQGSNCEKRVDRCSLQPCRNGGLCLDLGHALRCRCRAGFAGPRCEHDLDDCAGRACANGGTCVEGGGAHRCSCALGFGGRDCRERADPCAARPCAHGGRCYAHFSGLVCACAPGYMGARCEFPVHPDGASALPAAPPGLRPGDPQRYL

[6] = biological target: T5, human CD3 (hCD3) naturally expressed on Jurkat cells (human, UniProt P07766 23-207); assay: flow cytometry (FACS) on Jurkat cells naturally expressing hCD3
T5 construct: whole, on cells; on the cells it is part of the whole TCR/CD3 complex; also called Jurkat cell line
T5 sequence (P07766 23-207): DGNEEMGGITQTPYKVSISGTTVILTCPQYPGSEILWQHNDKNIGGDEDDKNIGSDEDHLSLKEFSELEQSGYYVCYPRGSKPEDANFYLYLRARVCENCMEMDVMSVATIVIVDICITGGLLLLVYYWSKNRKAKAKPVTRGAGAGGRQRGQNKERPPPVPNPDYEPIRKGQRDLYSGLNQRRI

[7] = biological target: T2, human DLL3 (hDLL3) expressed on tumor …; assay: flow cytometry (FACS) on SHP-77 cells expressing hDLL3

Sequence of human CD3 (purchased from Acro, Cat. No. CDD-H52W1) (P07766 23-126): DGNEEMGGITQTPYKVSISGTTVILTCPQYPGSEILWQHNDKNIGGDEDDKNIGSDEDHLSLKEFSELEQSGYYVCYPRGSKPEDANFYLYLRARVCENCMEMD

B1: Bispecific antibody 2 (bispecific antibody, IgG1)
heavy: not shown
chain: DKTHTCPPCPAPEAAGGPSVFLFPPKPKDTLMISRTPEVTCVVVDVSHEDPEVKFNWYVDGVEVHNAKTKPREEQYNSTYRVVSVLTVLHQDWLNGKEYKCKVSNKALPAPIEKTISKAKGQPREPQVCTLPPSRDELTKNQVSLSCAVKGFYPSDIAVEWESNGQPENNYKTTPPVLDSDGSFFLVSKLTVDKSRWQQGNVFSCSVMHEALHNRYTQKSLSLSPGK
light: EIVLTQSPATLSLSPGERATLSCRASQSINNNLHWYQQKPGQAPRLLIKYVSQSISGIPARFSGSGSGTDFTLTISSLEPEDFAVYYCQQTNAWPLTFGGGTKLEIKRTVAAPSVFIFPPSDEQLKSGTASVVCLLNNFYPREAKVQWKVDNALQSGNSQESVTEQDSKDSTYSLSSTLTLSKADYEKHKVYACEVTHQGLSSPVTKSFNRGEC
notes: Knob heavy chain: DLL3 VH-CH1-(G4S)3-CD3 scFv-EPKSS-IgG1 Fc (S354C, T366W, L234A/L235A); Hole chain: Fc only (Y349C, T366S, L368A, Y407V, H435R); Light chain: that of H2-39E2D11-NA; also called anti-CD3-DLL3 bispecific antibody
- Kd [1]: 9.09 nM
- koff [1]: 0.00414 s⁻¹
- Kd [2]: 11.1 nM
- koff [2]: 0.00405 s⁻¹
- TDCC EC50 (nM), NCI-H82 cell line [3]: 80.2 nM
- TDCC EC50 (nM), SHP-77 cell line [3]: 136 nM
- Kd [4]: 0.887 nM
- koff [4]: 8.6e-05 s⁻¹
- kon [4]: 97000 M⁻¹ s⁻¹
- Kd [5]: 0.647 nM
- koff [5]: 7.92e-05 s⁻¹
- kon [5]: 122000 M⁻¹ s⁻¹
- EC50 [6]: 57.9 nM
- EC50 [7]: 3.11 nM
